This experiment concerns the target hFc-tagged NKG2A/CD94 protein (NKG2A/CD94-hFc), immunogen A (human) (UniProt P26715). Briefly: ELISA on NKG2A/CD94-hFc protein (immunogen A), OD 450 nm.

Drawing on US20220259306A1, this text covers EC50 (read off the curve) for two substances.

Sequence of hFc-tagged NKG2A/CD94 protein (NKG2A/CD94-hFc), immunogen A (human) (P26715 94-233 limits assumed, chain 1 of 2): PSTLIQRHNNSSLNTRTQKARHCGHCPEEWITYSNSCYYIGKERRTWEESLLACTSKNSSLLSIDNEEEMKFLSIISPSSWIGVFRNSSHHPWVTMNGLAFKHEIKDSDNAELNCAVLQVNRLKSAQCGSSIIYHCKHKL
Sequence of hFc-tagged NKG2A/CD94 protein (NKG2A/CD94-hFc), immunogen A (human) (chain, as listed by the source limits assumed, chain 2 of 2): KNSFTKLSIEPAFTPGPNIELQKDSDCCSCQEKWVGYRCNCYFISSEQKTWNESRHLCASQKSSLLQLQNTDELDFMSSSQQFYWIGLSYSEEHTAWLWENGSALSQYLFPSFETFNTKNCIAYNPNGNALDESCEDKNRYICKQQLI

A word on the EC50 (read off the curve): it is the concentration needed to bring the measured effect to its halfway point. For the substance control antibody-1, the EC50 (read off the curve) is 60 pM.

control antibody-2 came in with an EC50 (read off the curve) of 100 pM.
